This passage reports activity (mU beta-galactosidase) and activity (beta-galactosidase activity) results from patent US20080280333.

In this data set the target is T1, GlxR (Corynebacterium glutamicum) (UniProt Q79VI7).
T1 sequence: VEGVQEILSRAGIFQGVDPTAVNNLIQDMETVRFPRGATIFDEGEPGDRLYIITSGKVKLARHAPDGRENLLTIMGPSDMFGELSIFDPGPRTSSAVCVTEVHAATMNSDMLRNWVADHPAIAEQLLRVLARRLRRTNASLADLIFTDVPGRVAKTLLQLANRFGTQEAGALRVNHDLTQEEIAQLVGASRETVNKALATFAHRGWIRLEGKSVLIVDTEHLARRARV
Briefly: cell_activity.

Take “PaceB-lacZYA reporter (aceB promoter region)”: the activity (mU beta-galactosidase) (E. coli DH5alphaF'-145 with pSL145, 27 mU with empty vector pMT1, repression) is 2.5. For the same substance, the activity (beta-galactosidase activity) (E. coli HL994, chromosomal PaceB-lacZYA, 237 with empty vector) was 128.
